The test system of test [1] is HDV. The conditions noted are these: cited from earlier work.
In test [2] the test system is HDV. Put plainly: Phase 2 LIMT study: Lambda for 48 weeks in HDV patients, with two liver-biopsy case reports. Also on record: key to fibrosis score (ISHAK) in liver biopsy following Lambda treatment / fibrosis score (ISHAK) in post-treatment biopsy: F5: incomplete cirrhosis; F1: mild portal fibrosis. Format: in vivo, human. An excerpt:
See also International Application No. PCT/US2019/048038 for description of this therapy. Impact of Lambda therapy on liver histology was not assessed in the LIMT study. In this example, two case reports of regression of liver fibrosis following treatment in HDV patients from the LIMT study are provided.
Two patients from the LIMT study, who had liver biopsies prior to study randomization, treated with subcutaneous injections of Lambda 180 mcg once weekly for 48 weeks, followed by a 24 week follow-up period, were evaluated with liver biopsy 18 months after last Lambda injection. Liver biopsies, staged according to the ISHAK scoring system, were compared with results of historical biopsies of the patients. HDV RNA viral load and ALT levels were assessed at baseline (BL), end of treatment (EOT) and end of study (EOS). Fibroscan® was performed at BL and EOS.
FibroScan is a specialized ultrasound machine that measures fibrosis (scarring) and steatosis (fatty change) in the liver. The Fibroscan device (Echosens) works by measuring shear wave velocity. In this technique, a 50-MHz wave is passed into the liver from a small transducer on the end of an ultrasound probe. The probe also has a transducer on the end that can measure the velocity of the shear wave (in meters per second) as this wave passes through the liver. The shear wave velocity can then be converted into liver stiffness, which is expressed in kilopascals. Essentially, the technology measures the velocity of the sound wave passing through the liver and then converts that measurement into a liver stiffness measurement; the entire process is often referred to as liver ultrasonographic elastography. See additional discussion in Afdhal, N.H., Gastroenterol Hepatol (N Y). 8(9): 605-607 (2012).

Test [3] relates to HDV. The conditions noted are these: HBV/HDV co-infected mice; four weeks; cited from earlier work.
Test [4] relates to HDV. As to conditions: Lambda for 48 weeks; patients with HDV and compensated liver disease; cited from earlier work.
For test [5], the system named is HBV. As to conditions: cited from earlier work.

With interferon alfa, in test [1] (24 weeks post-treatment follow-up), the “patients with undetectable HDV RNA” value was 0%. For the same molecule, in test [1] (end of 48 weeks treatment, 180 mcg monotherapy, Robogene 2.0 assay), the “HDV patients with undetectable HDV RNA” value is 13%.

B1: Lambda: pegylated form of interferon lambda, a type III interferon signalling through interferon lambda receptors (protein, UniProt Q8IU54 20-200, looked up)
Interferon lambda-1: GPVPTSKPTTTGKGCHIGRFKSLSPQELASFKKARDALEESLKLKNWSCSSPVFPGNWDLRLLQVRERPVALEAELALTLKVLEAAAGPALEDVLDQPLHTLHHILSQLQACIQPQPTAGPRPRGRLHHWLHRLQEAPKKESAGCLEASVTFNLFRLLTRDLKYVADGNLCLRTSTHPEST
modifications: PEG (peginterferon lambda-1a)
notes: pegylated form of interferon lambda, a type III interferon signalling through interferon lambda receptors
For B1, the “HDV RNA level at EOS” value in test [2] (Patient 1, 24 week follow-up after 48 weeks Lambda, BL 3.7 log10) stood at 2.6 log10. For the same molecule, the “Fibroscan score at EOS” value turned out to be 9.9 kPa in test [2] (Patient 1, BL 20 kPa) and 11.1 kPa in test [2] (Patient 2, BL 7.7 kPa). For the same molecule, the “ALT at EOS” value in test [2] (Patient 1, BL 169 U/L) is 54 U/L; in test [2] (Patient 2, BL 159 U/L), 162 U/L. Further, the “ALT at EOT” value in test [2] (Patient 1, BL 169 U/L) turned out to be 55 U/L; in test [2] (Patient 2, BL 159 U/L), 44 U/L. Moreover, the “HDV RNA level at EOT” value in test [2] (Patient 1, Lambda 180 mcg once weekly 48 weeks, BL 3.7 log10) is given as “undetectable”. In test [2] (Patient 1, biopsy 18 months after last Lambda injection, historical biopsy F5), the “fibrosis score (ISHAK) in liver biopsy following Lambda treatment” value is “F1”. The “HDV RNA at EOS” value in test [2] (Patient 2, 24 week follow-up after 48 weeks Lambda, BL 4.9 log10) is reported as 3.6 log10. Also, the “HDV RNA at EOT” value in test [2] (Patient 2, Lambda 180 mcg once weekly 48 weeks, BL 4.9 log10) was “undetectable”. Further, in test [2] (Patient 2, biopsy 18 months after last Lambda injection, historical biopsy F4 (marked bridging fibrosis)), the “fibrosis score (ISHAK) in post-treatment biopsy” value is “F1”. The “reduction in HDV-RNA levels” value in test [3] was 1.5 log. The “durable virologic response (HDV RNA below limit of quantification at 24 weeks post-treatment)” value in test [4] is reported as 36%. In addition, the “difference between pegylated interferon alfa and pegylated interferon lambda treatment” value in test [5] (end of the treatment period) is recorded as “no difference”. Also, the “declines in viremia as compared to pegylated interferon alfa” value in test [5] (midpoint of treatment (24 weeks)) is reported as “more pronounced declines in viremia”. Moreover, in test [5] (post-treatment, versus pegylated interferon alfa), the virologic rebound result was “greater virologic rebound”.

(Values after patent US20240082360A1, “METHODS TO TREAT HEPATITIS DELTA VIRAL INFECTIONS” (Eiger Biopharmaceuticals, Inc., priority 2019, published 2024).)
